Reference: article PMC12083643, “Closed State Structure of the Pore Revealed by Uncoupled Shaker K+ Channel” (Research Square, 2025)

Target: the molecule itself
Experiment: cryo-EM structure; single-particle cryo-EM of the purified channel in 0.02% GDN, 150 mM KCl, 2 mM TCEP, 1 mM EDTA, 50 mM TRIS pH 7.5; about 0.7 mg/mL; refinement with C4 symmetry

B1: Shaker-IR-I384R (natural protein, UniProt P08510 1-655, looked up)
chain: MAAVALREQQLQRNSLDGYGSLPKLSSQDEEGGAGHGFGGGPQHFEPIPHDHDFCERVVINVSGLRFETQLRTLNQFPDTLLGDPARRLRYFDPLRNEYFFDRSRPSFDAILYYYQSGGRLRRPVNVPLDVFSEEIKFYELGDQAINKFREDEGFIKEEERPLPDNEKQRKVWLLFEYPESSQAARVVAIISVFVILLSIVIFCLETLPEFKHYKVFNTTTNGTKIEEDEVPDITDPFFLIETLCIIWFTFELTVRFLACPNKLNFCRDVMNVIDIIAIIPYFITLATVVAEEEDTLNLPKAPVSPQDKSSNQAMSLAILRVIRLVRVFRIFKLSRHSKGLQRLGRTLKASMRELGLLIFFLFIGVVLFSSAVYFAEAGSENSFFKSIPDAFWWAVVTMTTVGYGDMTPVGVWGKIVGSLCAIAGVLTIALPVPVIVSNFNYFYHRETDQEEMQSQNFNHVTSCPYLPGTLGQHMKKSSLSESSSDMMDLDDGVESTPGLTETHPGRSAVAPFLGAQQQQQQPVASSLSMSIDKQLQHPLQQLTQTQLYQQQQQQQQQQQNGFKQQQQQTQQQLQQQQSHTINASAAAATSGSGSSGLTMRHNNALAVSIETDV
notes: Subcloned into a modified pEG BacMam vector with a C-terminal HRV 3C protease site, eGFP and 8x-His; the channel was released from the beads by HRV 3C protease; PDB 7SIP (Shaker-IR without I384R) was the template for model building; also called uncoupled channel; uncoupled I384R mutant; not shown: eGFP, C-terminal, cleaved; 8x-His, C-terminal, cleaved
stoichiometry N: 4
